# Test results reported in publication PMC8445988, “Characterization of two β-galactosidases LacZ and WspA1 from Nostoc flagelliforme with focus on the latter’s central active region” (Scientific Reports, 2021).
# B1: Nf-LacZ (β-galactosidase LacZ of Nostoc flagelliforme) (enzyme, UniProt A0A2K8T1B7 1-619, looked up)
# chain: MKLLDIQKRKVESPSNRDNQRVSSFPEAGYPRPQLQRSHWLSLNGLWKFAFDNEGRCVQPGDIEGWTHHIQVPFAPESTKSGIGDTGFHPNCWYEREFETPEGDGRLLLHFGAVDYRARVWVNGQYMIEHEGGHTPFTLDITTVLNDTGITKVTVWAQDDPGDLAKPRGKQDWQLEPHSIWYPRTSGIWQTVWIERVGRTYIDSIRWSPDFERWEVGCYAAIAGDAPAGIQIKVKLSIGNTVLANDTYEVFNGEIGRRISLSDPGIDDYRNELLWSPEKPTLMDAHIELWHNNQLLDEAKSYTAMRTVGIQRDRFMLNGRPYYLRLVLDQGYWPDSLMTAPDDGALRRDVELTKAMGFNGVRKHQKIEDPRFLYWADKLGLLVWEEMPSAYRFTPKAVERTTREWAEVIRRDISHPCIVAWVTFNESWGVPNLVETAAHRNYVLAMYHLTKTLDPGRPVIANDGWESTDTDILAIHDYDTHPQRLGHRYGPEVKLSDLFDRKRPGGRILTLDNFPHQGQPVMLTEFGGIAYAPVDNPDADKAWGYERCSNISELEIKYATLLETINDIELFSGFCYTQFTDTFQEANGLLYADRTPKFPIEAIRAATLSGQGLCTPTSC
# notes: β-galactosidase LacZ homolog of Nostoc flagelliforme, NCBI AUB41471, gene COO91_07519 (KEGG); 619 amino acid residues, calculated 70.8 kDa; The number of chains in the multimer is left open (at least a trimer or larger); also called COO91_07519; AUB41471
# Legend:
# [1] = substrate: O=[N+]([O-])c1ccccc1O[C@@H]1O[C@H](CO)[C@H](O)[C@H](O)[C@H]1O; assay: purified protein
# [2] = target: the molecule itself; assay: SEC; gel filtration on an FPLC system (AKTA purifier), 20 mM Tris-HCl, 150 mM NaCl, 10% glycerol, pH 7.5; five molecular weight markers (200, 150, 66, 29, 12.4 kDa); absorbance at 280 nm
protein,measurement,setting,value
B1,Km,[1],500 µM
same,stoichiometry N,[2],≥ 3
